For one molecule, Kd results are on record in publication PMC3115958 (2011).

The assay has as its target wild type sortilin expressed in COS-7 cells (UniProt Q99523 78-831).

Chain of wild type sortilin expressed in COS-7 cells (Q99523 78-831): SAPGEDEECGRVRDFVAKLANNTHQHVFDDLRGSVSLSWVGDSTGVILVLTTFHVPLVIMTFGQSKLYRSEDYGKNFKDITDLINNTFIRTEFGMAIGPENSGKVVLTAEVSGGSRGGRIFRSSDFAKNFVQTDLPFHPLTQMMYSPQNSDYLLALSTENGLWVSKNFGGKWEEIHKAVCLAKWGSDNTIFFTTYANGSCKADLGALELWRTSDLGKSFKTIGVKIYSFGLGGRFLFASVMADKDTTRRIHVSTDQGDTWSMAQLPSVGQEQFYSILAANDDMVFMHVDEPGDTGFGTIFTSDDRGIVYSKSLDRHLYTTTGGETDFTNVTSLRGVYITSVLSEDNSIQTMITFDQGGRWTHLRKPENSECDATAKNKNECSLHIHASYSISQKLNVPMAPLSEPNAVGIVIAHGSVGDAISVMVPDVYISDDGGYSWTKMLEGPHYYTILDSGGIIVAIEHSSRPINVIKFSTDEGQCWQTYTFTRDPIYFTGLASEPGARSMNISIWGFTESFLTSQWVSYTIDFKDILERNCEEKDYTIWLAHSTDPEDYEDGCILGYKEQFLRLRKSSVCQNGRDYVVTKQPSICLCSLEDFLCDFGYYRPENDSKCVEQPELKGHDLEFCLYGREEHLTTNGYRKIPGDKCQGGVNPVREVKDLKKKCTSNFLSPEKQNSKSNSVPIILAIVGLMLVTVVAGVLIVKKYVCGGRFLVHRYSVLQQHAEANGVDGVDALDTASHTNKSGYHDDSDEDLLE

B1: alkaline phosphatase tagged progranulin C100 (granulin E and its flanking region, aa 494-593) (domain or fragment)
chain: SCEKEVVSAQPATFLARSPHVGVKDVECGEGHFCHDNQTCCRDNRQGWACCPYRQGVCCADRRHCCPAGFRCAARGTKCLRREAPRWDAPLRDPALRQLL
As a reminder, the Kd is the concentration at which binding is half-saturated. Molecule B1 yielded a Kd of 3 nM.
